In patent US20230272390A1, “COMPOSITIONS AND METHODS FOR HEMOGLOBIN PRODUCTION” (THE CHILDREN'S HOSPITAL OF PHILADELPHIA, priority 2020, published 2023):

Tested on: endogenous ZNF410
Test: ChIP-seq in HUDEP-2 cells overexpressing HA-tagged ZF constructs
Assay type: cell-based, human
Settings: overexpression in HUDEP-2 cells
Description: HUDEP-2 cells at Day 3 of differentiation, primary human CD34+ cells at Day 9 differentiation (similar to the polychromatic stage) and G1E-ER4 cells at 24 hours differentiation were crosslinked with 1% formaldehyde at room temperature for 10 min and quenched by the addition of glycine. ChIP experiments were performed (Hsu, et al. (2017) Mol. Cell., 66:102-116). ZNF410 (Proteintech, Cat. #14529-1-AP), HA (Sigma, Cat. #11815016001) and H3K27ac (Abcam, Cat. #ab4729) antibodies were used for ChIP. ChIP-seq libraries were prepared using TruSeq® ChIP-seq Sample preparation Kit (part #IP-202-1012) according to the manufacturer's instructions. Reads were aligned with Bowtie2 local alignment to allow the mapping of indels (Langmead, et al. (2012) Nat. Methods 9:357-359). […]
Reads were aligned against reference genome hg38 for human and genome mm10 for mouse using Bowtie2 (v2.2.9) and the default parameters. […] Reads aligned to mitochondria, random contigs and ENCODE blacklisted regions were also removed for downstream analysis. Genome coverage files were generated and normalized to 1 million reads per library using bedtools (v2.25.0), and then converted to bigwig format for visualization using the UCSC Toolkit. […] Read density plot and heatmap around selected peaks were generated using Deeptools (version 2.5.7, “computeMatrix” and “plotHeatmap”). […]

B1: ZF1-5: fragment of human ZNF410 comprising five zinc finger domains ZF1-5 (residues 217-366); dominant-negative when overexpressed (protein)
chain: KKLKCTVEGCDRTFVWPAHFKYHLKTHRNDRSFICPAEGCGKSFYVLQRLKVHMRTHNGEKPFMCHESGCGKQFTTAGNLKNHRRIHTGEKPFLCEAQGCGRSFAEYSSLRKHLVVHSGEKPHQCQVCGKTFSQSGSRNVHMRKHHLQLG
modifications: left off: small tags and cut ends
notes: fragment of human ZNF410 comprising five zinc finger domains ZF1-5 (residues 217-366); dominant-negative when overexpressed
In the case of B1, the “interference with endogenous ZNF410 binding” value (ChIP-seq) is reported as “markedly interfered” and the chromatin occupancy (HA ChIP-seq) is reported as “bound to the CHD4 regulatory regions and to the other ZNF410 targets”.
